Experimental data reported in the supplement of paper PMC10567573.
± gives the standard deviation.

Assay: protein stability index of a GFP-peptide fusion (GPS, HEK-293T) (PSI 1-6); higher = more stable
[1] = treatment: DMSO, c terminus: a fixed tail appended
[2] = treatment: MLN4924 1 uM, 8 h, c terminus: a fixed tail appended
[3] = treatment: DMSO, c terminus: native
[4] = treatment: MLN4924 1 uM, 8 h, c terminus: native
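Note: 24-mer peptide tiles fused after GFP, lentivirally expressed, FACS-sorted into six equal bins by GFP/DsRed ratio, decoded by Illumina sequencing, PSI is the read-weighted mean bin number.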

Sequence	protein stability index [1]	protein stability index [2]	protein stability index [3]	protein stability index [4]
HPEVKCVGSVALTALVTVSSEEFE [C8orf76]	3.27 ± 0.19	3.31 ± 0.52	–	–
HQPPQAGAGDVVLLQRELAQEDSL [LYSMD4]	5.09 ± 0.13	5.04 ± 0.15	–	–
HQRSSSESYTQSFQSRKPFFSWW [PI4K2A]	–	–	3.41 ± 0.27	3.7 ± 0.3
HRKRGSQPPDMASALTDRTSRAPS [RSPH3]	4.89 ± 0.17	4.95 ± 0.18	–	–
HSIALSTFASLIGPFGGFFASGFK [CDS1]	2.57 ± 0.61	2.64 ± 0.69	–	–
HVAPLLAAAGLHASPMSADRVVAF [NR2F2]	2.27 ± 0.43	2.24 ± 0.27	–	–
HWALRVTPGLGVVAVLLLFLVVRE [SPNS1]	2.83 ± 0.47	2.79 ± 0.59	–	–
HWNGRHKPWDFPSVHNDLWESWFV [GLT8D2]	2.28 ± 0.58	2.54 ± 0.52	–	–
IALVENIPEGLNYSENAPFHLSLF [PLD5]	2.2 ± 0.83	2.25 ± 0.24	–	–
IDEVLLHQDVDLVCINLPPPLTRQ [GFOD1]	2.83 ± 0.38	2.98 ± 0.43	–	–
IDNARLAADDFRLKYENELALRQG [KRT15]	4.24 ± 0.28	4.28 ± 0.45	–	–
IDYKTTTILLDGRRVRLELWDTSG [RAB40C]	2.25 ± 0.61	2.21 ± 0.26	–	–
IENYKKQTRNGLGKDHEILRRRIE [FUT8]	3.67 ± 0.24	3.87 ± 0.24	–	–
IFAWNKWIDIKQFVWYTPPTFMIA [STEAP1]	2.97 ± 1.2	2.95 ± 0.64	–	–
IFCLHGGLSPSIDTLDHIRALDRL [PPP2CA]	2.29 ± 0.59	2.21 ± 0.17	–	–
IFGASSVDFSLSGRLLFAGYNDYT [GNB5]	2.6 ± 0.63	2.12 ± 0.49	–	–
IFHSRTSLQKLSTKLSAQSAQYSQ [FCHSD1]	2.91 ± 0.17	2.98 ± 0.34	–	–
IFTKKLPHPDLPAEEKEQLLHNDE [USP39]	5 ± 0.16	5.03 ± 0.1	–	–
IGPPSAAAIFKIYLSCLEELMKCQ [TRIP13]	2.16 ± 0.31	2.21 ± 0.34	–	–
IGSCVTNPCGPRSRCGPCNTFGY [KRT33B]	–	–	2.9 ± 0.28	2.97 ± 0.34
IHQETVSKNGNGLKNTPRFKRRRV [PCMTD2]	4.41 ± 0.27	4.63 ± 0.27	–	–
IINDTYSEVKEELAGQKDELQLSD [PKD2L1]	5.35 ± 0.23	5.28 ± 0.22	–	–

Sequence	protein stability index [1]	protein stability index [2]	protein stability index [3]	protein stability index [4]
IKEQLIQEGLLDRCVSFQARFAEK [HDAC6]	2.81 ± 0.19	2.73 ± 0.36	–	–
IKRLVGSDQETLRIHERLVAGSLA [SLC25A25]	2.74 ± 0.31	2.62 ± 0.18	–	–
ILPKELQGWVREHCPESGEEAVIL [ZSCAN9]	2.74 ± 0.35	2.95 ± 0.47	–	–
INPFTPDSLLLHSSGQCRRRKRTY [WEE1]	3.62 ± 0.4	3.83 ± 0.41	–	–
IQNSDNDLPVVQGSSSFSLKGYPS [TRIM29]	3.91 ± 0.29	4.07 ± 0.2	–	–
IQSWDINSRRNINYRSFEPILRLL [ZER1]	2.31 ± 0.099	2.41 ± 0.21	–	–
IRKTVKRLRKHQHVGDFARDLAAR [ELOA2]	3.6 ± 0.23	3.69 ± 0.23	–	–
IRMIVRGTLGSCSSSSECLEDSTM [PLK2]	2.3 ± 0.3	2.25 ± 0.12	–	–
IRNSRPLVKKVEEDEAGGRFVAFS [UFD1]	4.11 ± 0.15	4.05 ± 0.21	–	–
IRQVLQGLDYLHSKCKIIHTDIKP [SRPK2]	2.35 ± 0.44	2.22 ± 0.23	–	–
IRVMVHGRNHTPFLGHHSFSVRPG [SCNN1D]	2.55 ± 0.24	2.85 ± 0.88	–	–
ISDFGRQQLLPPFPSLHQSLPQNQ [EHMT1]	3.45 ± 0.14	3.28 ± 0.23	–	–
ISEAQLKDRETSKVIYDFIEKTGG [WASL]	3.42 ± 0.13	3.67 ± 0.15	–	–
ISIVIFCLETLPEFRDDRDLVMAL [KCNA4]	3.04 ± 0.81	2.84 ± 0.68	–	–
ISLAKGPPGPKGDQGDEGKEGRPG [SCARA5]	5.24 ± 0.26	5.485 ± 0.034	–	–
ISNIDTTIEGTSDDLTVVDAASLR [MFF]	5.09 ± 0.27	4.82 ± 0.56	–	–
ISQEEFARQLQLSDPQTVAGAFGY [LPCAT4]	3.41 ± 0.43	3.09 ± 0.41	–	–
ITQSWQVSVRVQPRGRAHLLPNPY [C22orf15]	2.59 ± 0.83	3.36 ± 0.85	–	–
ITVTQSHLVIQNLFEGMIWFLVPI [CDS1]	3.25 ± 0.45	3.24 ± 0.34	–	–
IVVHCSAGIGRTGTFCSLDICLAQ [PTPN9]	3.85 ± 1	3.45 ± 0.19	–	–
IVWNKKGKKVSNQRFEVIEFDDGS [PTPRD]	3.31 ± 0.18	3.15 ± 0.062	–	–
IYRKREEKRNAGNAVRSAMKSEEQ [KMT5A]	4.47 ± 0.17	4.39 ± 0.25	–	–

Sequence	protein stability index [1]	protein stability index [2]	protein stability index [3]	protein stability index [4]
KACNKAVAGEFSEPVTLETPAFMF [FSD1]	2.84 ± 0.18	2.98 ± 0.33	–	–
KAQLPRRESERRNHSLARHADILA [FBXO28]	3.85 ± 0.11	3.96 ± 0.14	–	–
KARKTYERLVAQFPSSGRFWKLYI [CSTF3]	2.57 ± 0.39	2.44 ± 0.35	–	–
KASGKNKHFKVQLVDNVYCIGQRR [NCK2]	3.06 ± 0.23	3.2 ± 0.16	–	–
KEAVQNERDRISTRRSSYEDSSLP [HNF4A]	5.07 ± 0.31	5.14 ± 0.25	–	–
KEQEETIQRIDENVLGAQLDVEAA [STX5]	5.52 ± 0.22	5.4 ± 0.34	–	–
KFLASHFPNRTDQQCQYRWLRVLN [MYBL2]	2.19 ± 0.46	2.2 ± 0.29	–	–
KFSPDGKYVVSGFDVDHGICIMDA [WDR88]	2.69 ± 0.21	3.13 ± 0.49	–	–
KGEYEVAEGIGSTVFRAILDYYKT [BTBD10]	2.43 ± 0.4	2.35 ± 0.41	–	–
KGGISETRIEKRIVITGDADIDHD [EPB41L3]	5.31 ± 0.2	5.16 ± 0.51	–	–
KGSSELGFPRVAPEDEVIVNQYVI [RNF208]	2.8 ± 0.44	2.64 ± 0.36	–	–
KHSNSPPLVTPPQSPVSPQPPAIT [SMTNL2]	4.82 ± 0.15	4.92 ± 0.15	–	–
KISGGPRISYPLLHEWALREGEE [MAGEA6]	–	–	2.68 ± 0.52	3.02 ± 0.65
KKAEKKLEENPYDLDAWSILIREA [CSTF3]	3.19 ± 0.36	3.26 ± 0.41	–	–
KKDKCGRTPLHYAAANCHFHCIET [ANKRD44]	2.5 ± 0.096	2.63 ± 0.29	–	–
KKDTLTEEETQFYISETVLAIDAI [STK38L]	3.85 ± 0.3	3.97 ± 0.15	–	–
KKFLTLGSKFRYSGRTQAQTRRAS [EPB41L3]	3.27 ± 0.61	3.49 ± 0.41	–	–
KLATQHKQLISQTKKKQWCYNCEE [ZMYND11]	3.48 ± 0.4	3.8 ± 0.23	–	–
KLFCIPVHGIRSVGTAAVNMCLVA [IMPA1]	2.4 ± 0.8	2.26 ± 0.85	–	–
KLFDDCTQQFKAEKLKEKLKMKER [PPP2R5C]	3.43 ± 0.14	3.71 ± 0.15	–	–
KLHEIFRGLHEDLQGVPERLLGTA [VTI1B]	2.48 ± 0.3	2.72 ± 0.74	–	–
